{
  "source": "the nanobody polyreactivity screen of Harvey et al. (2022)",
  "data": [
    {"assay": "yeast display, Sf9 membrane polyspecificity reagent, FACS + sequencing; frameworks hold sequencing errors", "procedure,_shortened": "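A synthetic nanobody library was expressed on Saccharomyces cerevisiae BJ5465 by galactose induction for 36–48 hours. The library was stained for 1 hour at 4 °C with 10% biotinylated, detergent-solubilized Sf9 membrane reagent and enriched with streptavidin microbeads before FACS. Low and high (top ~1%) gates were set on anti-HA fluorescence for expression and streptavidin fluorescence for reagent binding, and each polyreactivity label reflects the gate of origin.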", "values": [
      {"sequence": "QVQLVESGGGLVQAGGSLRLSCAASGSTLWYNAMGWYRQAPGKERELVASITSDGGSSTYADSVKGRFTISRDNAKNTVYLQMNSQKPEDTAVYYCAADWPIVQYDYWGQGTQVTVSS", "polyreactivity (PSR sort gate)": "low polyreactivity"},
      {"sequence": "QVQLVESGGGLVQAGGSLRLSCAASGFIFERYTMGWYRQAPGKERELVAAISDSGGSTYYADSVKGRFTISRDNAKNTVYLQMNSLKPEDTAVYYCAAKFRNYRPSKYYYWGQGTQVTVSS", "polyreactivity (PSR sort gate)": "high polyreactivity"},
      {"sequence": "QDQLVESGGGLVQAGGSLRLSCAASGFIFADYAMGWYRQATGKERELVAAISWGGGSTYYADSVKGRFTISRDIAKNTVYLQMNSLKPEDTAVYYCAAANPGSEYDYWGQGTQVTVSS", "polyreactivity (PSR sort gate)": "high polyreactivity"},
      {"sequence": "QVQLVESGGGLVQAGGSLSLSCAASGITFVIYVMGWYRQAPGKERELVAAISWIGGSTYYADSVKGRFTISRDYAKNTVYLQMNSLKPEDTAVYYCATDYVVVVSTGYDYWGQGTQVTVSS", "polyreactivity (PSR sort gate)": "low polyreactivity"},
      {"sequence": "QVQLVESGGGLVQAGGSLRLSCAASGRTFDHNAMGWYRQAPGKERELVAAITWSGGITDYADSVKRPFTISRDNAKNTVYLQMNSLKPEDTAVWGQGTQVTVSS", "polyreactivity (PSR sort gate)": "low polyreactivity"},
      {"sequence": "QVQLVESGGGLVQAGGSLRLSCAASGSTFYWYAKGWYRQAPGKERELVAAITSTGGSTYADSVKGRFTISRDNAKNTVYLQMNSLKPEDTAVYYCNVDTSSPSRRDYDYWGQGTQVTVSS", "polyreactivity (PSR sort gate)": "low polyreactivity"},
      {"sequence": "QVQLVESGGGLVQAGGSLRLSCAASGSIFETNAMGWYRQAPGKERELVAAITGSGGSTYYADSVKGRFTISRDNAKNTVYLQMNSLIPVDTEVYYCAADSSGQSRFGYWGQGTQVTVSS", "polyreactivity (PSR sort gate)": "low polyreactivity"},
      {"sequence": "QVQLVESGGGLVQAGGSLRLSCAASGFIFRTYAMGWYRQAPGKERELVATITGDGSTNYADSVKGRFTISRDNAKNTVYLQMNSLKPEDTAVYYCSRDDRLAGDYWGQGTQVTVSS", "polyreactivity (PSR sort gate)": "low polyreactivity"},
      {"sequence": "QVQLVQSGGGLVQAGGSLRLICAASGSNFYGNAMGWYRQAPGKERELVAAISRGGGYTYYADSVKGRFTISRDNAKNTVYLEMNSLKPEDTAVYYCDATRYLHPWYYPYYYWGQVTQVTVSS", "polyreactivity (PSR sort gate)": "low polyreactivity"},
      {"sequence": "QVHLVESGGGLVQAGGSLRLTCAASGSIFRFYTMGWYRPATGKERELVATISRGGSTNYADSVKGRFTISRDNAKNSVSLQMNSLKPEVTGVYYCNFGALYSTYWGYGYDYWGQGTQVTVSS", "polyreactivity (PSR sort gate)": "high polyreactivity"},
      {"sequence": "QVQLVESGGGLVQAGGSLSLSCAASGRTFIFYAMGWYRQAPGKERELVAAISSSGSGTYYADSVKGRFTISRDNAKNTVYLQMNSLKPEDTAVYYCAADVVNSRRRPKYGYWGQGTQVTVSS", "polyreactivity (PSR sort gate)": "low polyreactivity"},
      {"sequence": "QVQLVESGGGLVQAGGSLRLSCAASGFTFRRNVIGWYRQAPGKERELVAAIRGSDGSTYYADSVKGRFTNSRDNAKNTVYLQMNSLKPEDTAVYYCNVVGIGLYRKMGYWGQGTQVTVSS", "polyreactivity (PSR sort gate)": "high polyreactivity"},
      {"sequence": "QVQHVESGGGLVQAGGSLRLSCAASVIIFLWYAMGRYRQAPGKERELGAAISRSGSSTYYADSVKGRFTISRDNAKNTVYLQMNSLKPEDTAVYYCAAAYYSKRSCRFDYWGQGTQVTVSS", "polyreactivity (PSR sort gate)": "high polyreactivity"},
      {"sequence": "QVQLVESGGGLVQAGGSLRLSCAASGFTFRLYDMGCYIQAPGKERELVAAISIRGGRTYYADSVKGRFTISRDNAKNTVYLQMNSLKPEDTAVYYCAAYSQYLKRDYWGQGTQVTVSS", "polyreactivity (PSR sort gate)": "high polyreactivity"},
      {"sequence": "QVQLVESGGGLVQAGGSLRLSCAASGSIFPYNAMGWYRQAPGKERELVAAISKRGGSTYYADSVKGRFTISRDNAKNTVYFQMNSLKPEDTAVYYCAARYPPYRSWYSYDYWGQGTQVTVSS", "polyreactivity (PSR sort gate)": "low polyreactivity"},
      {"sequence": "QVQLVESGGGLVQAGGSLRLSCAASGFIFIFYAMGWYRQAPGKERELVAGISWSSSSTYYADSVKGRFTISRDNAKNTVYLQMNSLKPEDTAVYYCAKDGRSVSGEYDYWGQGTQVTVSS", "polyreactivity (PSR sort gate)": "low polyreactivity"},
      {"sequence": "QVQLVESGGGLVQAGGRLRLSCAASGSTFPYNAMGCYRQAPGKERELVAAITSTGDSTYYADSVKGRFTISRDKAKNTVYLQMNSLKPEDTAVYYCAARSYASPGWRYEYWGQGTQVTVSS", "polyreactivity (PSR sort gate)": "low polyreactivity"},
      {"sequence": "QVQLVESGGGLVQAGGSLRLSCAASGFIFPRYAMGWYRQAPGKERELVAGITSRGTGTYYADSVKGRFTISRDNAKNTVYLQMNSLKPEDTAVYYCARLSTKPLPYDYWGLGTQVTVSS", "polyreactivity (PSR sort gate)": "high polyreactivity"},
      {"sequence": "QVQLVESGGGLVQAGGSLRLSCAASGRTFLVNAMGWYRQAPGKEREYVAAINFSVGTTTYADSVKGRFTISRDNAKNTVYLQMNSLKPEDTAVYYCNTYGRYWYIREDYWGQGTQVTVSS", "polyreactivity (PSR sort gate)": "high polyreactivity"},
      {"sequence": "QVHLLESGGGLLQAGGSLRLSCAASGLIFRPYAMGWYRQAPGKERELVAGISFRGDSTYYADSVKGRFTISRDNAKNTVYLHMNSLKPEDTAVYYWNKRKASSSGYNYWGQGTQVTVSS", "polyreactivity (PSR sort gate)": "low polyreactivity"},
      {"sequence": "QVQHVKSGGGLVQAGGSLRLSCAASGSIFGYNTMGWYRQAPGKERELVATITYRGGSTYYADSVKGRFTISRDNAKNTVYLQMNSLKPEDTAVYYCARRVTRYPYTTWDSAGDYWGQGTQVTVSS", "polyreactivity (PSR sort gate)": "high polyreactivity"},
      {"sequence": "QVQLVESGGGLVQAGGSLRLSCAASGRIFYYNTMGWYRQAPGKARELVAAITTNGGSTYYADSVKGRFTISRDNAKNTVYLQMNSPKPEDTAVYYCNRDRYPYYYAYNYWGQGTQVTVSS", "polyreactivity (PSR sort gate)": "low polyreactivity"},
      {"sequence": "QVQIVETGGGLVQAGGSLRLSCAASGSIFSAYVMGWYRQAPGKERELVAAITRTGGRTYYADSVKGRFTISRDNAKNTVYLQMNSLKPEDTAVYYCAKEAITRTFPYRHEYWGQGTQVTVSS", "polyreactivity (PSR sort gate)": "low polyreactivity"},
      {"sequence": "QVQLVESGGGLVQAGGSLRLISAASGNIVYFNAMGWYRQAPGKERELVAAISRAGSTYYADSVKGRFTISRDNAKNTVYLQMNSLKQEDTAVYYCAATTGRPDNYYYWGQGTQVTVSS", "polyreactivity (PSR sort gate)": "high polyreactivity"},
      {"sequence": "QVQLVESGGGLVQAGGILRLSCAASGRIFYVNAMGWYRQAPGKERELVAAITWIDGSTYYADSVKGRFTISRDNAKNTVYLQMNSLKPEDTAVYYCAAGGYFYSFYYWGQGTQVTVSS", "polyreactivity (PSR sort gate)": "low polyreactivity"},
      {"sequence": "QVQLVESGGGLVQAGGSLRVICAASGSTFSGNAMGWSRKAPGKERELVAAISRRGGRTYYADSVKGRFTISRDNAKNTVFLQMNRLKPEDTAVYYCAATSGVYRVGIIKYDYWGQGTQVTVSS", "polyreactivity (PSR sort gate)": "high polyreactivity"},
      {"sequence": "QVQLLESGGGLVQAGGSLRLSCAASGSTLKLNAMGWYRQAPGKDRELVAAITRSGGSTNYADSVKGRFTISRDNAKNTVSLQMNSLKPEDTAVYDCAADVLWDEFGYWGQGTQVTVSS", "polyreactivity (PSR sort gate)": "low polyreactivity"},
      {"sequence": "QVQLVESGGGLVQAGGSLRLSCAASGSIFRYYAMGWYRPAPGKERELVAAISSRGGRTYYADSVKGRFTISRDNAKNTVYLQMNSLIPEDTAVYYCAARRYRYTTPFRYGYDYWGQGTQVTVSS", "polyreactivity (PSR sort gate)": "high polyreactivity"},
      {"sequence": "QLQLEESGGGLVQAGGSLRLSCAPSGSILNIYAMGWYRQAPGKERELVAVITSGTNTNYAVSVKGRFTISRDNAKNTVYLQMNSRKPEDTAVYYCNDEKYWWGYEYWGQGTQVTVSS", "polyreactivity (PSR sort gate)": "high polyreactivity"},
      {"sequence": "QVHLVESGGGLVQAGGSLRLSCAASGRTFYYYAMGWYRQAPGKERELVAAISGSGTNTYYADSVKGRFTISRDNAKNTVYLQMNRLKPEDTAVYYCAAEYFGFYTDGGVFDLYYWGQGTQVTVSS", "polyreactivity (PSR sort gate)": "low polyreactivity"},
      {"sequence": "QVQLVESGGGLVQAGGSLRLSCAASGRTFGYYAMGWYRQAPGKERELVAAISWRGGSTYYADSVKGRFTISRDNAKNTVYLQMNSLKPEDTAVYYCNRAYVYPQGPYPYDYWGQGTQVTVSS", "polyreactivity (PSR sort gate)": "high polyreactivity"},
      {"sequence": "QVQLVESGGGLVQAGGSLRLSCAASGLTFYSYAMGWYRQAPGKERELVAAISSSGGNTYYADSVKGRFTISRDNAKNTVYLQMNSLKPEDTAVYYCNVYHWSRVFAIDYYWGQATQVTVSS", "polyreactivity (PSR sort gate)": "high polyreactivity"},
      {"sequence": "QVQLVESGGGLVQAGGSLRLICAASGYIFRDYAMGWYRQAPGKERELVATISSGGSTSYADSVKGRFTISRDNAKNTVYLQMNSLKPEDTAVYYCAADVANTSAEYYYWGQGTQVTVSS", "polyreactivity (PSR sort gate)": "low polyreactivity"},
      {"sequence": "QVQLVESGGGLVQAGGSLRLSCAASGSTFKTYAMGWYRQAPGKEREFVAAINWRGTSTYYADSVKGRFTISRDNAKNTVYLQMNSLKPEDTAVYYCAAQRYGYGYQWYDHWGQGTQVTVSS", "polyreactivity (PSR sort gate)": "high polyreactivity"},
      {"sequence": "QVQLVESGGGLVQAGGSLRVSCAASGTIFRRYAMGWYRQAPGKERELVATISSCTTTNYADSVKGRFTISRDNAKNTVYLQMNSLKPEDTAVYYCAADDYYEFYWGQGTQVTVSS", "polyreactivity (PSR sort gate)": "high polyreactivity"},
      {"sequence": "QVQLVESGGGLVQAGGSLRFSCAASGSIFGKNAIGWYRQAPGKERELVAAITRSGGSTYYADSVKGRFTISRDNAKNTVYLQMNSLKPEDTAVYYCNAVRVRVTSHRIRQLDYGYWGQGTQVTVSS", "polyreactivity (PSR sort gate)": "low polyreactivity"},
      {"sequence": "QVQLVESGGGLVQAGGSLRLSCAASGNTFSQYAMGWSRQAPGKERELVATISKSSGSTSYADSVKGRFTISRDNAKNTVYLQMNSLKPEDTAVYYCNADSSDVYHHLGVLFFSTWYDYWGQGTQVTVSS", "polyreactivity (PSR sort gate)": "low polyreactivity"},
      {"sequence": "QVQLVESGGGLVQAGGSLRLSCAASGFTFPVYALGWYRQAPGKEREFVAAITKSGGGTYYADSVKGRFTISRDNAKNTVYLQMTSLKPEDTAVYYCAKASRRFLTLGYDYWGQGTQVTVSS", "polyreactivity (PSR sort gate)": "high polyreactivity"},
      {"sequence": "QVHLLESGGGLLQAGGSLRLNSDASGSTFITYCIGWFRQAPGKERELVARITLSGGSTYYADSVKGRFTSSRDNAKNTVYLQMNRLKPEDTAVYYCATDFGWQYYVLDGYYWGQGTQVTVSS", "polyreactivity (PSR sort gate)": "low polyreactivity"},
      {"sequence": "QDQLVESWGGLVQAGGSLRLICASSGSNIGYNAMGWYRPAPVKERELVAAISYSGGSTYYADSVKGRFTISRDNAKNTVYFRMNSLKPEDTAVYYCNKYIRRYLIYGSWGQGSQVTVSS", "polyreactivity (PSR sort gate)": "high polyreactivity"},
      {"sequence": "QVQLVESGGGLVQAGGSLRLSCAASGITFITYTMGWYRQEPGKERELVAGISSGGSTYYADSVKGRFTISRDNAKNTVYLQMNSLKPEDTAVYYCAAEFAGWGYYWFDYWGQGTQVTVSS", "polyreactivity (PSR sort gate)": "high polyreactivity"},
      {"sequence": "QVQLVESGGGLFQAGGSLRLSCAASGRILNINAMGWYRQAPGKERELVAAITWRGGRTFYADSVKGRFTISRDNAKNTVYLQMNSLKPEDTAVYYCAASSNTWYPTGYYWGQGTQVTVSS", "polyreactivity (PSR sort gate)": "high polyreactivity"},
      {"sequence": "QVQHVESGGGLVQAGGSLRLSCAASVSIFGWKAMGWYRKAPGKERQLVAVITCAGSTNYADSVKGRFTISRDNAKNTVYLQMNSLKPEDTAVYYCAAENLGQGGNFAYFGYYYWGQGTQVTVSS", "polyreactivity (PSR sort gate)": "low polyreactivity"}
    ]}
  ]
}
